Legend:
4H3409-AA = target: T1, 4H3409-AA; assay: two-hybrid library CCmax;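 further: natural log of median RNA to DNA barcode read ratio; higher means stronger binding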
T1 chain: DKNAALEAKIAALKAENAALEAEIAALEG

4H3625-AA = target: T2, 4H3625-AA; assay: two-hybrid library CCmax; conditions: mean of both orientations;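 further: natural log of median RNA to DNA barcode read ratio; higher means stronger binding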
T2 chain: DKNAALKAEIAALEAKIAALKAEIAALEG

4H390-AA = target: T3, 4H390-AA; assay: two-hybrid library CCmax; conditions: mean of both orientations;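 further: natural log of median RNA to DNA barcode read ratio; higher means stronger binding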
T3 chain: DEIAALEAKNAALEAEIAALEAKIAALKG

4H3940-AA = target: T4, 4H3940-AA; assay: two-hybrid library CCmax; conditions: mean of both orientations;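 further: natural log of median RNA to DNA barcode read ratio; higher means stronger binding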
T4 chain: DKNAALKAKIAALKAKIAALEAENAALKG

4H510-AA = target: T5, 4H510-AA; assay: two-hybrid library CCmax; conditions: mean of both orientations
T5 chain: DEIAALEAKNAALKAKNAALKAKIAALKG

4H775-AA = target: T6, 4H775-AA; assay: two-hybrid library CCmax; conditions: mean of both orientations
T6 chain: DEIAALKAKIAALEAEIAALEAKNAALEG

4H816-AA = target: T7, 4H816-AA; assay: two-hybrid library CCmax; conditions: mean of both orientations
T7 chain: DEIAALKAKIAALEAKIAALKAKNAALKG

4H87-AA = target: T8, 4H87-AA; assay: two-hybrid library CCmax; conditions: mean of both orientations
T8 chain: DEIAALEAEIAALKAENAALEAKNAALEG

4H3297-bN = target: T9, 4H3297-bN; assay: two-hybrid library CCNG1
T9 chain: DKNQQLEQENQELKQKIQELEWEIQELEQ

4H3364-bN = target: T10, 4H3364-bN; assay: two-hybrid library CCNG1
T10 chain: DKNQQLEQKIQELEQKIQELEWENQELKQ

4H3381-bN = target: T11, 4H3381-bN; assay: two-hybrid library CCNG1
T11 chain: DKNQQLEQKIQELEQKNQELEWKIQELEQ

4H349-bN = target: T12, 4H349-bN; assay: two-hybrid library CCNG1
T12 chain: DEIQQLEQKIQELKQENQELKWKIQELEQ

4H56-bN = target: T13, 4H56-bN; assay: two-hybrid library CCNG1
T13 chain: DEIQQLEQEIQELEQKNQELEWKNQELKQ

4H730-bN = target: T14, 4H730-bN; assay: two-hybrid library CCNG1
T14 chain: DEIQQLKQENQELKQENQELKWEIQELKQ

4H796-bN = target: T15, 4H796-bN; assay: two-hybrid library CCNG1
T15 chain: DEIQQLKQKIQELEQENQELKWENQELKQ

4H932-bN = target: T16, 4H932-bN; assay: two-hybrid library CCNG1
T16 chain: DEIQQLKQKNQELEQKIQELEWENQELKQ

4H949-bN = target: T17, 4H949-bN; assay: two-hybrid library CCNG1
T17 chain: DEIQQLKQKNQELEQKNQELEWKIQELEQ

4H2389-AA = target: T18, 4H2389-AA; assay: two-hybrid library CCmax
T18 chain: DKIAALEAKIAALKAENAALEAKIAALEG

4H2438-AA = target: T19, 4H2438-AA; assay: two-hybrid library CCmax; conditions: mean of both orientations
T19 chain: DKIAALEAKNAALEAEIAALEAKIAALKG

4H2473-AA = target: T20, 4H2473-AA; assay: two-hybrid library CCmax; conditions: mean of both orientations
T20 chain: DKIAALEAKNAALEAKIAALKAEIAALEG

4H2649-AA = target: T21, 4H2649-AA; assay: two-hybrid library CCmax; conditions: mean of both orientations
T21 chain: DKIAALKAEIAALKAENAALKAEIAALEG

4H2698-AA = target: T22, 4H2698-AA; assay: two-hybrid library CCmax; conditions: mean of both orientations
T22 chain: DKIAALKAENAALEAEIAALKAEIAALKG

4H2725-AA = target: T23, 4H2725-AA; assay: two-hybrid library CCmax; conditions: mean of both orientations
T23 chain: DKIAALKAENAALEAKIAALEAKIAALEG

4H2865-AA = target: T24, 4H2865-AA; assay: two-hybrid library CCmax; conditions: mean of both orientations
T24 chain: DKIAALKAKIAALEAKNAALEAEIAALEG

4H3009-AA = target: T25, 4H3009-AA; assay: two-hybrid library CCmax; conditions: mean of both orientations
T25 chain: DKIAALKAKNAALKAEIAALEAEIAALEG

4H3016-AA = target: T26, 4H3016-AA; assay: two-hybrid library CCmax; conditions: mean of both orientations
T26 chain: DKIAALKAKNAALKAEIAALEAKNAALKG

4H310-AA = target: T27, 4H310-AA; assay: two-hybrid library CCmax; conditions: mean of both orientations
T27 chain: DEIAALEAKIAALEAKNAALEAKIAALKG

4H3120-AA = target: T28, 4H3120-AA; assay: two-hybrid library CCmax; conditions: mean of both orientations
T28 chain: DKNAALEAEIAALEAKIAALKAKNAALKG

4H3130-AA = target: T29, 4H3130-AA; assay: two-hybrid library CCmax; conditions: mean of both orientations
T29 chain: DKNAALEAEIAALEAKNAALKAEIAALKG

4H3165-AA = target: T30, 4H3165-AA; assay: two-hybrid library CCmax; conditions: mean of both orientations
T30 chain: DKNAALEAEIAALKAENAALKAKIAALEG

4H3381-AA = target: T31, 4H3381-AA; assay: two-hybrid library CCmax; conditions: mean of both orientations
T31 chain: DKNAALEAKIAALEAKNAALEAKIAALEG

4H3395-AA = target: T32, 4H3395-AA; assay: two-hybrid library CCmax; conditions: mean of both orientations
T32 chain: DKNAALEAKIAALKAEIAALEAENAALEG

4H3410-AA = target: T33, 4H3410-AA; assay: two-hybrid library CCmax; conditions: mean of both orientations
T33 chain: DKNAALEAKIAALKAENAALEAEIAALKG

4H3590-AA = target: T34, 4H3590-AA; assay: two-hybrid library CCmax; conditions: mean of both orientations
T34 chain: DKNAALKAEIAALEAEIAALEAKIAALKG

4H3697-AA = target: T35, 4H3697-AA; assay: two-hybrid library CCmax; conditions: mean of both orientations
T35 chain: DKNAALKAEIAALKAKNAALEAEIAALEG

4H3753-AA = target: T36, 4H3753-AA; assay: two-hybrid library CCmax; conditions: mean of both orientations
T36 chain: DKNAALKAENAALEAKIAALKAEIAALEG

4H3865-AA = target: T37, 4H3865-AA; assay: two-hybrid library CCmax; conditions: mean of both orientations
T37 chain: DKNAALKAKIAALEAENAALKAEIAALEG

4H458-AA = target: T38, 4H458-AA; assay: two-hybrid library CCmax; conditions: mean of both orientations
T38 chain: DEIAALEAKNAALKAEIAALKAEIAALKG

4H485-AA = target: T39, 4H485-AA; assay: two-hybrid library CCmax
T39 chain: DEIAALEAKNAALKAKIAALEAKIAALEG

4H536-AA = target: T40, 4H536-AA; assay: two-hybrid library CCmax; conditions: mean of both orientations
T40 chain: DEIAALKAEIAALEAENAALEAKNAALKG

4H570-AA = target: T41, 4H570-AA; assay: two-hybrid library CCmax; conditions: mean of both orientations
T41 chain: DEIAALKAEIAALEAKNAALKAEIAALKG

4H629-AA = target: T42, 4H629-AA; assay: two-hybrid library CCmax; conditions: mean of both orientations
T42 chain: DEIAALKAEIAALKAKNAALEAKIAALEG

4H710-AA = target: T43, 4H710-AA; assay: two-hybrid library CCmax; conditions: mean of both orientations
T43 chain: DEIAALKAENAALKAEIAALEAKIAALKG

4H745-AA = target: T44, 4H745-AA; assay: two-hybrid library CCmax; conditions: mean of both orientations
T44 chain: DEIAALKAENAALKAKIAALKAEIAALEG

4H797-AA = target: T45, 4H797-AA; assay: two-hybrid library CCmax; conditions: mean of both orientations
T45 chain: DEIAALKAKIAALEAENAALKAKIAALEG

4H850-AA = target: T46, 4H850-AA; assay: two-hybrid library CCmax; conditions: mean of both orientations
T46 chain: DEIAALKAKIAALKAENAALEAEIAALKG

4H891-AA = target: T47, 4H891-AA; assay: two-hybrid library CCmax; conditions: mean of both orientations
T47 chain: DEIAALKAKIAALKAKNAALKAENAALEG

4H909-AA = target: T48, 4H909-AA; assay: two-hybrid library CCmax; conditions: mean of both orientations
T48 chain: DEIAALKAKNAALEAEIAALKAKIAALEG

4H930-AA = target: T49, 4H930-AA; assay: two-hybrid library CCmax; conditions: mean of both orientations
T49 chain: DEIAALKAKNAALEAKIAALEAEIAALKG

4H94-AA = target: T50, 4H94-AA; assay: two-hybrid library CCmax; conditions: mean of both orientations
T50 chain: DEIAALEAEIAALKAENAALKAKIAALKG

**Q.** How did the interaction score (4H3409-AA) turn out when DKNAALEAKIAALKAENAALEAEIAALEG [4H3409-AA] was run?
**A.** -1.02

**Q.** And the interaction score (4H3625-AA)?
**A.** -0.625

**Q.** And the interaction score (4H390-AA)?
**A.** -1.28

**Q.** What about the interaction score (4H3940-AA) of the same binder?
**A.** -1.12

**Q.** What about the interaction score (4H510-AA) of the same binder?
**A.** 0.697

**Q.** What about the interaction score (4H775-AA) of the same binder?
**A.** -1.25

**Q.** What about the interaction score (4H816-AA) of the same binder?
**A.** -1.37

**Q.** And the interaction score (4H87-AA)?
**A.** -1.93

**Q.** How did the interaction score (4H3297-bN) turn out when DKNQQLEQENQELKQKIQELEWEIQELEQ [4H3297-bN] was run?
**A.** -0.0469

**Q.** And the interaction score (4H3364-bN)?
**A.** -0.913

**Q.** And the interaction score (4H3381-bN)?
**A.** -1.01

**Q.** What about the interaction score (4H349-bN) of the same binder?
**A.** -2.11

**Q.** And the interaction score (4H56-bN)?
**A.** -0.798

**Q.** What about the interaction score (4H730-bN) of the same binder?
**A.** -0.799

**Q.** What about the interaction score (4H796-bN) of the same binder?
**A.** -0.556

**Q.** And the interaction score (4H932-bN)?
**A.** -1.21

**Q.** What about the interaction score (4H949-bN) of the same binder?
**A.** -1.29

**Q.** How did the interaction score (4H2389-AA) turn out when DKIAALEAKIAALKAENAALEAKIAALEG [4H2389-AA] was run?
**A.** 2.02

**Q.** What about the interaction score (4H2438-AA) of the same binder?
**A.** -0.27

**Q.** And the interaction score (4H2473-AA)?
**A.** -1.3

**Q.** What about the interaction score (4H2649-AA) of the same binder?
**A.** 1.07

**Q.** And the interaction score (4H2698-AA)?
**A.** -0.843

**Q.** What about the interaction score (4H2725-AA) of the same binder?
**A.** -0.942

**Q.** What about the interaction score (4H2865-AA) of the same binder?
**A.** 1.02

**Q.** What about the interaction score (4H3009-AA) of the same binder?
**A.** 1.53

**Q.** And the interaction score (4H3016-AA)?
**A.** 0.227

**Q.** And the interaction score (4H310-AA)?
**A.** 1.8

**Q.** What about the interaction score (4H3120-AA) of the same binder?
**A.** -0.79

**Q.** And the interaction score (4H3130-AA)?
**A.** 1.81

**Q.** And the interaction score (4H3165-AA)?
**A.** 0.858

**Q.** What about the interaction score (4H3381-AA) of the same binder?
**A.** -0.842

**Q.** What about the interaction score (4H3395-AA) of the same binder?
**A.** -1.54

**Q.** What about the interaction score (4H3410-AA) of the same binder?
**A.** -1.2

**Q.** And the interaction score (4H3590-AA)?
**A.** -0.0915

**Q.** What about the interaction score (4H3697-AA) of the same binder?
**A.** -1.74

**Q.** And the interaction score (4H3753-AA)?
**A.** -1.26

**Q.** What about the interaction score (4H3865-AA) of the same binder?
**A.** -0.601

**Q.** What about the interaction score (4H458-AA) of the same binder?
**A.** -0.364

**Q.** And the interaction score (4H485-AA)?
**A.** 0.153

**Q.** And the interaction score (4H536-AA)?
**A.** -0.282

**Q.** What about the interaction score (4H570-AA) of the same binder?
**A.** 1.65

**Q.** What about the interaction score (4H629-AA) of the same binder?
**A.** -0.106

**Q.** And the interaction score (4H710-AA)?
**A.** 0.392

**Q.** And the interaction score (4H745-AA)?
**A.** -1.25

**Q.** What about the interaction score (4H797-AA) of the same binder?
**A.** 1.3

**Q.** And the interaction score (4H850-AA)?
**A.** -0.804

**Q.** And the interaction score (4H891-AA)?
**A.** -0.959

**Q.** What about the interaction score (4H909-AA) of the same binder?
**A.** -1.35

**Q.** What about the interaction score (4H930-AA) of the same binder?
**A.** -0.305

**Q.** And the interaction score (4H94-AA)?
**A.** 1.99

Reference: article PMC10397247
